The text below walks through data of patent US20080248046A1 (Human Genome Sciences, published 2008).

Test [1] addresses T1, DR5 expressed from an expression construct in 293 cells (immunoprecipitated with Flag M2 antibody affinity … (human, UniProt O14763 52-440)).
T1 construct: The text says only 'the indicated expression constructs'; also called Death Domain Containing Receptor 5
Kind of test: co-transfection of 293 cells, Flag M2 immunoprecipitation, immunoblot with polyclonal antibody to FADD. An excerpt:
(§1) 293 cells were co-transfected with the indicated expression constructs using calcium phosphate precipitation.

In test [2] the target is T1, DR5 expressed from an expression …. Kind of test: co-transfection of 293 cells, Flag M2 immunoprecipitation, immunoblot with HRP-conjugated antibody to myc.
Excerpt: as §1
Background: A western blot detects proteins with antibodies after separation by electrophoresis.

B1: FADD (other, UniProt Q13158 1-208, looked up)
chain: MDPFLVLLHSVSSSLSSSELTELKFLCLGRVGKRKLERVQSGLDLFSMLLEQNDLEPGHTELLRELLASLRRHDLLRRVDDFEAGAAAGAAPGEEDLCAAFNVICDNVGKDWRRLARQLKVSDTKIDSIEDRYPRNLTERVRESLRIWKNTEKENATVAHLVGALRSCQMNLVADLVQEVQQARDLQNRSGAMSPMSWNSDASTSEAS
notes: also called FADD/MORT1
Take B1: the binding result in test [1] is reported as “no binding”.

B2: myc-tagged TRADD (other, UniProt Q15628 1-312, looked up)
chain: MAAGQNGHEEWVGSAYLFVESSLDKVVLSDAYAHPQQKVAVYRALQAALAESGGSPDVLQMLKIHRSDPQLIVQLRFCGRQPCGRFLRAYREGALRAALQRSLAAALAQHSVPLQLELRAGAERLDALLADEERCLSCILAQQPDRLRDEELAELEDALRNLKCGSGARGGDGEVASAPLQPPVPSLSEVKPPPPPPPAQTFLFQGQPVVNRPLSLKDQQTFARSVGLKWRKVGRSLQRGCRALRDPALDSLAYEYEREGLYEQAFQLLRRFVQAEGRRATLQRLVEALEENELTSLAEDLLGLTDPNGGLA
notes: also called myc-TRADD
Regarding B2, in test [2], the binding result is “no binding”.
